From patent US20140147418A1

Biological target: B7.1 on mouse macrophages (CRL-2751) (mouse) (UniProt Q00609)
Test: flow cytometry on mouse macrophages stained with FITC anti-B7-1 after medium from naive HEK-293 cells

UniProt Q00609, sequence (Q00609 38-306): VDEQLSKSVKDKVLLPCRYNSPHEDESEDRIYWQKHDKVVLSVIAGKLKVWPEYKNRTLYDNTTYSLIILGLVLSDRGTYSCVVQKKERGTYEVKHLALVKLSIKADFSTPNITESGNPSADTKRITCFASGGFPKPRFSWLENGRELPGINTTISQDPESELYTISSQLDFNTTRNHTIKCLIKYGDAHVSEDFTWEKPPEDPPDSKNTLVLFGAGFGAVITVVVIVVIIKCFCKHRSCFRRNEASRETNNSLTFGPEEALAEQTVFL

“Armenian hamster IgG FITC-conjugated anti B7-1 (Santa Cruz Biotechnology) (antibody)” showed a percent of macrophages B7-positive in the absence of CTLA4IgG of 18%.
